Laboratory results taken from article PMC8448839.
Positions count from the first letter of the chain named. Numbers in names are those of the source.

B1: GST-Pib2(304-635), P53191 V626A (protein)
chain: LPQPASSTNLNFNSNKHKSNVRQISNPKKPLYIPAVLRKVSETNITNDDLLNATLSSYYKKASNLEHGFNPSKSQSASVQNANNLRIISSQSSVQSNTSSILESYKNKISSYLFPNSIPNSDRINLIPTISNRNSARVNPPTKDHWIPDSKRNSCRYCHKPFTLWERKHHCRHCGDIFCQDHLRHWLYLDSQANFIMINELNNGGINGGGTLCKICDDCLVEYENLSTTNHNANTNEDNINVEEGEDDDNDNRKKLRNYYKNRQMNALFRPKKGGSSQEHATVDRDTTTPIQVKSNDEEADNENTGGEQEEGNDVLGSVIGSAPANWNWSSF
B2: GST-Pib2(304-635), P53191 A628T (protein)
chain: B1 chain with A323V, A325T

Target: TOR complex 1 (TORC1) in lysate of FLAG-Tor1 expressing yeast cells (TS269), P35169;P38873
Test: pull-down (GST) from yeast cell lysate, western blot quantified
Conditions: chain shown with the change, read off a plot, scale: FLAG-Tor1 / GST-Pib2
[1] = without glutamine, parent: est. 1.0

Row | Binder | response (25 mM Gln, parent: est. 6.2) | response [1]
1 | B1 | 2.7 | 0.6
2 | B2 | 3.5 | 0.6
